Reference: patent US20030220482A1 (published 2003)

B1: viral Macrophage Inflammatory Protein-II (vMIP-II) (ligand)
chain: LGASWHRPDKCCLGYQKRPLPQVLLSSWYPTSQLCSKPGVIFLTKRGRQVCADKSKDWVKKLMQQLPVTAR
notes: also called native vMIP-II

Assays:
CXCR4 chemokine receptor [1] = target: T1, CXCR4 chemokine receptor (human, UniProt P61073 1-352); experiment: ^125I-SDF-1α competitive binding on CEM-T4 cells
T1 construct: whole, on cells
Description: CEM-T4 cells were harvested and washed twice with PBS. […] The incubation was terminated by separating the cells from the binding buffer by centrifugation and washing once with 500 μl of cold binding buffer. Bound ligands were quantitated by counting γ emissions.

CCR5 chemokine receptor = target: T2, CCR5 chemokine receptor (UniProt P51681 1-352, limits assumed); experiment: competitive binding with radiolabeled MIP-1β on CCR5-transfected 293 cells
T2 construct: whole, on cells
T2 sequence (P51681 whole entry): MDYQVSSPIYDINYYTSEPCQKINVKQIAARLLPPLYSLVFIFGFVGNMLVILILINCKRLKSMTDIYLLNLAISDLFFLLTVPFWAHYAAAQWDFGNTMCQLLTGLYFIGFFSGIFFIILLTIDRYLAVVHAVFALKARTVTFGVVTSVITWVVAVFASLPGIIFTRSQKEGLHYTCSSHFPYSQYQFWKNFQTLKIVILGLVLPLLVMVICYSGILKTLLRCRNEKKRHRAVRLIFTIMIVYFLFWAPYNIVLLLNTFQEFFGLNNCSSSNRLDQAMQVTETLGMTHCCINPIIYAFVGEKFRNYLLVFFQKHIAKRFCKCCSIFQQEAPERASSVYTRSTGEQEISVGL

CXCR4 chemokine receptor [2] = target: T1, CXCR4 chemokine receptor; experiment: control in ^125I-SDF-1α competitive binding on CEM-T4 cells (FIG. 1)

T1 sequence (P61073 whole entry): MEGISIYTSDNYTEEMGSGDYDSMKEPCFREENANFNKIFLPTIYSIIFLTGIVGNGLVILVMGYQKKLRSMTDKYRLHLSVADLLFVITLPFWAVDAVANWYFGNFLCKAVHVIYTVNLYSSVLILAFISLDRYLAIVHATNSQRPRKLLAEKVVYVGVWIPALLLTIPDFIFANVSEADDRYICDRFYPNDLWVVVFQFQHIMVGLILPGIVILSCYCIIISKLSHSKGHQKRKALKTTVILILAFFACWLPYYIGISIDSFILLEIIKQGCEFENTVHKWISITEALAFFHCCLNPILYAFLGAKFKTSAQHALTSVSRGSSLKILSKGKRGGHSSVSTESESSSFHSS

Binder	binding result (CXCR4 chemokine receptor [1])	binding result (CCR5 chemokine receptor)	binding result (CXCR4 chemokine receptor [2])
LGASWHRPDK [V3 peptide (vMIP-II, 1-10)]	binds	no binding	
B1			binds
